# Laboratory results as given in US11360100B2, “Methods and compositions useful in detecting proteins” (OREGON HEALTH & SCIENCE UNIVERSITY, priority 2016, dated 2022).
# “Also recorded” adds a separate entry of the source. AF647 = AlexaFluor 647; Cy5 = Cy5 cyanine dye
# Experiments:
# [1] = test system: CoilZ-EGFP-TM; assay: Flow cytometry of probe labeling, live U-2 OS cells expressing CoilZ-EGFP-TM; type: cell-based, human
# Source text: (§1) Cells were gated for green fluorescence and analyzed for labeling with CoilY-AF647 (A) or CoilZ-AF647 (B). Transfected cells expressed CoilZ-EGFP-TM (green), CoilY-EGFP-TM (blue), or untagged EGFP-TM (gray). Values in bold indicate the median AF647 fluorescence for each cell population.
# FIGS. 25A and 25B provide flow analysis of cells treated with CoilY-AF647. In FIG. 25A U-2 OS cells were transfected with EGFP-TM or CoilZ-EGFP-TM and treated with increasing concentrations of CoilY-AF647. Single, live, green fluorescent cells expressing untagged (left) or tagged (right) EGFP-TM were counted and analyzed for labeling without probe peptide (0 nM) or with CoilY-AF647 (50, 100, 300, 500, 750, or 1000 nM). Values within each histogram indicate the median AF647 fluorescence for each cell population. Data analyzed included between 26,000 and 35,000 live, singlet GFP+ cells.
# The in vitro results were translated to living cells. Flow cytometry was used to evaluate protein labeling in live human osteosarcoma (U-2 OS) cells expressing CoilZ-EGFP-TM, CoilY-EGFP-TM, or untagged EGFP-TM (FIG. 11). […]
# Protein labeling was assessed as a function of CoilY-AF647 concentration (FIG. 25). […] Cells had 21- to 44-fold higher median fluorescence compared to cells expressing untagged protein. Treatment with 300 nM AF647-CoilY gave optimal labeling, with 98% of cells labeled and a 35-fold increase in AF647 fluorescence. […]
# [2] = test system: CoilY-EGFP-TM; assay: Flow cytometry of probe labeling, live U-2 OS cells expressing CoilY-EGFP-TM; type: cell-based, human; settings: 500 nM probe
# Source text: as §1
# (§2) The in vitro results were translated to living cells. Flow cytometry was used to evaluate protein labeling in live human osteosarcoma (U-2 OS) cells expressing CoilZ-EGFP-TM, CoilY-EGFP-TM, or untagged EGFP-TM (FIG. 11). Cells were treated with 500 nM AF647-conjugated probe peptide before analysis, and we gated for EGFP-expressing cells. […] Non-specific labeling of untagged EGFP-TM and homodimerization with CoilY-EGFP-TM were minimal for cells exposed to CoilY-AF647. Cells expressing CoilY-EGFP-TM were labeled with CoilZ-AF647, but with only a 4-fold enhancement.
# [3] = test system: untagged EGFP-TM; assay: Flow cytometry of probe labeling, live U-2 OS cells expressing untagged EGFP-TM; type: cell-based, human; settings: 500 nM probe
# Experimental: as §2
# Protein labeling was assessed as a function of CoilY-AF647 concentration (FIG. 25). Live cells expressing CoilZ-EGFP-TM or untagged EGFP-TM were treated with a range of CoilY-AF647 concentrations (50 nM to 1000 nM for 30 min at room temperature). […] Cells had 21- to 44-fold higher median fluorescence compared to cells expressing untagged protein. Treatment with 300 nM AF647-CoilY gave optimal labeling, with 98% of cells labeled and a 35-fold increase in AF647 fluorescence. Treatment with an excess of probe peptide (i.e., 1000 nM) enhanced the AF647 signal, but at the cost of a small increase in non-specific labeling.
# [4] = test system: CoilZ-EGFP; assay: Fluorescence microscopy labeling of cell-surface CoilZ-GFP (CoilZ-EGFP); type: cell-based, human
# Experimental: (§3) Fluorescence microscopy was used to confirm that the VIP Y/Z tag set enabled selective fluorescent labeling of proteins (FIGS. 3A and 3B). CoilZ was expressed by fusion to a cell-surface localized variant of GFP (CoilZ-GFP; pDisplay vector). […] Labeling was rapid (<30 min), target-specific, and live-cell compatible. Homodimerization between a CoilZ probe peptide and CoilZ-GFP was not observed. Cells expressing untagged GFP were not labeled with the CoilY probe peptide. CoilY was also expressed fused to the cell surface localized GFP and visualized using a CoilZ-AF647 probe peptide (FIG. 3B). No homodimerization of CoilY was observed, and the labeling was specific.
# (§4) It was next confirmed that the VIP Y/Z tag set could be used in two-target imaging in fixed cells (FIGS. 5B and 13). A combination of cell lines singly-transfected with mCherry, GFP, CoilY-mCherry, or CoilZ-GFP was used, as illustrated in FIG. 9. […] Then we labeled two tagged FPs in one sample using a mixed population of cells expressing either CoilY-mCherry or CoilZ-GFP.
# (§5) The disclosed methods were tested in transfected human osteosarcoma cells (U-2 OS). A pDisplay vector was used to target CoilZ-EGFP and untagged EGFP to the cell surface. This construct includes a C-terminal fusion to the transmembrane domain of the platelet derived growth factor receptor. As expected, both CoilZ-EGFP and untagged EGFP localized to the cell surface, and green fluorescence was observed within 24 h of transfection. Then the cells were blocked with 6% BSA and 10% FBS for 30 minutes at 37° C. and then contacted with an AF647-conjugated CoilY probe (CoilY-AF647), 30 min at 4° C. Cells were fixed before imaging by confocal fluorescence microscopy. The probe peptides are membrane impermeant; only cell-surface EGFP was accessible to CoilY-AF647 for labeling. Colocalization of green fluorescent CoilZ-EGFP with CoilY-AF647 was observed.
# (§6) The CoilY/CoilZ tag set is also compatible with live-cell imaging. CoilZ-EGFP was contacted with CoilY-AF647 in live U2OS cells. […] Homodimerization was not observed for CoilY-EGFP incubated with CoilY-AF647. Non-specific labeling of untagged GFP was not observed (FIG. 26). Cells internalize labeled targets over time. CoilZ-GFP and CoilY-AF647 co-localization was observed on the surface and in endocytic vesicles due to rapid internalization, and AF647 signal accumulated inside cells during a 40 min. long incubation at room temperature (FIG. 12).
# The VIPY/Z tag set can be used to label multiple protein targets simultaneously. Cells expressing CoilY-mCherry were combined with those expressing CoilZ-EGFP-pDisplay (FIG. 9). This mixed cell population, as well as unmixed CoilZ-GFP, CoilY-mCherry, and untagged controls, were plated for imaging. […] Fluorescence was detected by confocal fluorescence imaging. […]
# [5] = test system: CoilY-EGFP; assay: Fluorescence microscopy labeling of cell-surface CoilY-GFP (CoilY-EGFP); type: cell-based, human; settings: fluorescence microscopy
# Experimental: as §3
# The CoilY/CoilZ tag set is bidirectional—either CoilZ or CoilY can serve as the probe peptide. CoilY-EGFP was expressed on the surface of U2OS cells and labeled with CoilZ-AF647. Protein labeling was rapid (<30 min) and specific; non-specific labeling of untagged EGFP was not observed. Homodimerization was not observed for either CoilZ-AF647 with CoilZ-EGFP or CoilY-AF647 with CoilY-EGFP (FIG. 3B).
# as §6
# [6] = test system: untagged GFP/EGFP and mCherry; assay: Fluorescence microscopy, cells expressing untagged fluorescent proteins; type: cell-based, human
# Experimental: as §3, §4, §5
# The CoilY/CoilZ tag set is bidirectional—either CoilZ or CoilY can serve as the probe peptide. CoilY-EGFP was expressed on the surface of U2OS cells and labeled with CoilZ-AF647. […]
# [7] = test system: CoilY-mCherry; assay: Two-target fluorescence imaging, cells expressing CoilY-mCherry; type: cell-based; settings: fluorescence microscopy
# Source text: as §4
# The VIPY/Z tag set can be used to label multiple protein targets simultaneously. Cells expressing CoilY-mCherry were combined with those expressing CoilZ-EGFP-pDisplay (FIG. 9). This mixed cell population, as well as unmixed CoilZ-GFP, CoilY-mCherry, and untagged controls, were plated for imaging. After blocking for 30 minutes at 37° C. with 6% BSA, 10% FBS, cells were treated at 4° C. with 500 nM CoilZ-biotin for 15 min and then 500 nM CoilY-AF647 for 15 min. […] Cells were then fixed, blocked for 1 hour with 6% BSA, 10% FBS and treated with Qdot565-conjugated streptavidin in order to label CoilZ-biotin. Fluorescence was detected by confocal fluorescence imaging. […] So the CoilY/Z tag set can be used to image up to four proteins at once.
# [8] = test system: CoilY-mCherry; assay: SDS-PAGE/PVDF membrane labeling of transfected HEK293FT lysates, CoilY-mCherry; type: binding; settings: cell lysates, SDS-PAGE, PVDF membrane
# Experimental: The CoilY and CoilZ pair could be used to label two protein targets simultaneously. Transfected HEK293FT cell lysates from cells expressing mCherry, CoilY-mCherry, EGFP, or CoilZ-EGFP were resolved by SDS-PAGE and transferred to a PVDF membrane. The membrane was incubated sequentially with CoilZ-fluorescein and CoilY-rhodamine before imaging. GFP and mCherry fluorescence was not preserved due to SDS-PAGE protein denaturation.
# (§7) A protein gel-based assay was optimized for analyzing VIP tags in vitro. Cell lysates were made from cells transfected with mCherry, CoilY-mCherry, GFP, or CoilZ-GFP, resolved by SDS-PAGE, and transferred to a membrane. GFP and mCherry fluorescence were not preserved in this experiment. The membrane was then contacted with CoilZ-fluorescein and CoilY-rhodamine before imaging. […] The probe peptides were specific for each tagged protein, and this single pair enabled specific and selective protein tagging of two distinct targets. In addition both the VIP E/R and VIP Y/Z tag sets could be used concurrently to label two recombinant proteins (DHFR and mCherry) without crosstalk (FIG. 23).
# [9] = test system: untagged mCherry and DHFR; assay: SDS-PAGE/PVDF membrane labeling, untagged proteins; type: binding; settings: lysates and purified proteins, PVDF membrane
# Experimental: Crude lysates (lys.) and purified proteins (serial dilutions) were resolved by SDS-PAGE. Lysates were prepared from HERK 293FT cells transfected with mCherry, CoilY-mCherry, DHFR, and CoilE-DHFR. The protein gel was transferred to a PVDF membrane and then incubated with CoilZ-Fluorescein and CoilR-rhodamine. After washing, the membrane was imaged to detect VIPER labeling of DHFR (red) and VIP Y/Z labeling of mCherry (green). Untagged proteins were not labeled by either CoilR-rhodamine or CoilZ-fluorescein.
# as §7
# [10] = test system: His6-CoilY-mCherry; assay: Detection limit comparison on PVDF membrane (peptide vs immunolabeling); type: binding; settings: serial dilutions 400 ng to 0.8 ng
# Experimental: FIG. 10 is a detection limit comparison between peptide and immunolabeling. Serial dilutions of CoilY-mCherry (400 ng to 0.8 ng) were run on two identical SDS-PAGE gels before transfer to a PVDF membrane. The first membrane (top) was treated with CoilZ-fluorescein (CoilZ-FL) and imaged (ex 475/42 nm; em 537/35 nm). The second membrane (bottom) was labeled using an AF488-conjugated anti-His antibody “AF488-His” (QIAGEN, product number 35310) and imaged (475/42 nm excitation, 537/35 nm emission).
# The disclosed method is a sensitive alternative to fluorescent immunoblotting. Purified His6-CoilY-mCherry was generated and the sensitivity of detection of the His6-CoilY-mCherry using our CoilZ-fluorescein was compared to that of an AF488-labeled anti-His antibody from Qiagen. CoilZ-fluorescein could detect as little as 3 ng of His6-CoilY-mCherry, while the antibody required 8-fold more target protein (FIG. 10).
# Specifically, purified His6-mCherry and His6-CoilY-mCherry were loaded on a 10% SDS-PAGE gel for separation. Electrophoresis occurred at 165 V for 1 h. […]
# Decreasing quantities of purified CoilY-mCherry (400 ng to 0.8 ng) were resolved by SDS-PAGE and transferred to a PVDF membrane. […] CoilY-mCherry was detected by blotting with anti-pentahistidine mouse antibody conjugated to AlexaFluor488 (1:5000, QIAGEN; product number 35310). […]
# [11] = test system: untagged mEmerald constructs; assay: VIPER labeling of fixed, permeabilized U-2 OS cells, untagged constructs; type: cell-based; settings: 100 nM probe, same acquisition settings
# Experimental: The CoilE and CoilR peptides were assessed for their ability to label intracellular structures without perturbing normal trafficking and distribution of the tagged proteins. U-2 OS cells were transfected with mEmerald-actin-C18, mEmerald-CoilE-actin-C18, H2B-6-mEmerald, H2B-6-CoilE-mEmerald, Mito-7-mEmerald, and Mito-7-CoilE-mEmerald and fixed with 4% PFA 24 hours after transfection. Cells were then lightly permeabilized and then labeled with 100 nM CoilR-Cy5 in a blocking buffer. Cells were fixed and imaged using with line-scanning confocal microscope. […] VIPER labeling was specific, given by the colocalization of features between the VIPER(Cy5) and mEmerald signal.
# [12] = molecular target: T1, untagged TfR1 (Homo sapiens, UniProt P02786); assay: CoilR probe labeling of CHO TRVb cells expressing untagged TfR1; type: cell-based; settings: labeled at 4° C.
# T1 construct: expressed in transfected cells; host or cells: CHO TRVb
# T1 sequence (P02786 whole entry): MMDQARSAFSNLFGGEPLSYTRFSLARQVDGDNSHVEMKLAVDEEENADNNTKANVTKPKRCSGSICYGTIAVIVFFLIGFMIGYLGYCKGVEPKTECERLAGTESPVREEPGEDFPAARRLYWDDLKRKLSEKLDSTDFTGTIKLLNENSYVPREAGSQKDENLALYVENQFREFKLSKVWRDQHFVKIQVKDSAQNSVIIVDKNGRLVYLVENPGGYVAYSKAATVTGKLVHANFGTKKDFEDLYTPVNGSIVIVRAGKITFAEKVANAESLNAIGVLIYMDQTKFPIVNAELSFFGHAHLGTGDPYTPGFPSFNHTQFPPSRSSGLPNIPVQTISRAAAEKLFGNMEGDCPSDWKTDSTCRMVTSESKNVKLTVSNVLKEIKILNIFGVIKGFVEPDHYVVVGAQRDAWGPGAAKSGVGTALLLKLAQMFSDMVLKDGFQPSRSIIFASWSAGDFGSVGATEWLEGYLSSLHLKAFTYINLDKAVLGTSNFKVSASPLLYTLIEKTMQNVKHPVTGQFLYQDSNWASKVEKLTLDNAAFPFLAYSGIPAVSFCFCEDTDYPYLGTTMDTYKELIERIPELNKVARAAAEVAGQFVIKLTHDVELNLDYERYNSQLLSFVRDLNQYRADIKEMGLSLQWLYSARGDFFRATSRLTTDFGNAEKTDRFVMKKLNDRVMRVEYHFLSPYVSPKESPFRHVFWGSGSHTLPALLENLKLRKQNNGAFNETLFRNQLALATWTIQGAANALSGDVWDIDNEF
molecule,measurement,setting,value
"CoilY-AF647: CoilY probe peptide conjugated to AlexaFluor 647 (conjugate, not fully specified) peptide: MGSSNTVKELKNYIQELEERNAELKNLKEHLKFAKAELEFELAAHKFEGGGAAAC(AF647)LGKLAAALEHHHHHH",cells labeled,[1]; 300 nM probe,98%
same,enhancement of protein labeling (AF647 fluorescence),"[1]; 500 nM probe, live U-2 OS, gated for EGFP",greater than 40 fold
same,homodimerization with CoilY-EGFP-TM,[2],minimal
same,non-specific labeling of untagged EGFP-TM,[3],minimal
same,labeling time (rapid),"[4]; cell-surface CoilZ-GFP/EGFP, live-cell compatible",< 30 min
same,"labeling of CoilZ-GFP/EGFP (specificity, colocalization)",[4]; fluorescence microscopy,target-specific; also recorded: labeled; also recorded: Colocalization; also recorded: specifically label
same,homodimerization of CoilY probe with CoilY-GFP/EGFP,[5],not observed
same,non-specific labeling of untagged fluorescent proteins,[6],did not interact; also recorded: No CoilY-AF647 labeling was detected; also recorded: not observed
same,homodimerization / cross-reactivity of CoilY probe with CoilY-mCherry,[7],not observed; also recorded: no cross-reactivity
"CoilZ-fluorescein: green fluorescent CoilZ probe peptide, maleimide conjugate (conjugate) peptide: MGSSQKVAQLKNRVAYKLKENAKLENIVARLENDNANLEKDIANLEKDIANLERDVARGGGAAACLGKLAAALEHHHHHH",probe peptide binding to CoilY-mCherry on membrane,[8],specific coiled-coil heterodimer formation could be detected; also recorded: Probe peptide binding was detected
same,labeling of untagged proteins on membrane,[9],not labeled
same,least amount of His6-CoilY-mCherry detected,[10],3 ng
CoilR-Cy5: CoilR probe peptide conjugated to Cy5 (conjugate) peptide: MGGSLEIRAAFLRQRNTALRTEVAELEQEVQRLENEVSQYETRYGPLGGGAAALGC(Cy5)LAAALEHHHHHH,Cy5 signal in cells expressing untagged mEmerald constructs,[11],no significant Cy5 signal
same,labeling of cells expressing untagged TfR1,[12],no CoilR-Cy5 signal; also recorded: showed now labeling
